Measured values published in patent US20260007756A1, “COMPOUND AND USE THEREOF” (COHERENT BIOPHARMA (SUZHOU) LIMITED, priority 2022, published 2026).
Values after ≈ are worked out from the molar mass of the structure shown. Read-outs that look alike come from different tables or passages of the source.

What was measured:
[1] = system: human prostate cancer 22Rv-1 cell subcutaneous xenograft; test: Pharmacodynamic assessment, 22Rv-1 xenograft model (Example 17); format: in vivo, BALB/c nude male mouse; conditions: for Safety: 2.87 / 2.88 mg/kg i.v biw×3w
Protocol: Objective: Pre-clinical anti-tumor effect assessment of CR202 series of compounds in BALB/c nude male mouse model with human prostate cancer 22Rv-1 cell subcutaneous xenograft.
Procedures: 22Rv-1 (CL-00458) cells were cultured in a PRMI1640 medium containing 10% fetal bovine serum. The 22Rv-1 cells in the exponential phase were collected and resuspended in PBS to an appropriate concentration for subcutaneous tumor grafting in nude mice. The mice were subcutaneously grafted at the right back with 1×10^7 22Rv-1 cells, which were resuspended in a mixture of PBS and matrigel (1:1, 0.1 mL/mouse). The growth of the tumors was observed periodically. When the mean volume of the tumors reached 100-150 mm^3, the mice were randomized according to the tumor size. After the administration, the routine monitoring included the effect on tumor growth and the effect of treatment on the normal behavior of the animals, specifically the activity, food and water intake, weight gain or loss, the eyes, the hair, and other abnormal conditions. Clinical symptoms observed during the study were recorded in the raw data. After the administration was started, the body weight and tumor size of the mice were measured periodically. The tumor volume was calculated using the following formula: V=1/2×(a×b^2), where a and b denote the long diameter and short diameter of the tumor, respectively.

[2] = system: C4-2; conditions: C4-2, 72 h, CellTiter-Glo
Protocol: Cells were prepared in advance, trypsinized, collected, counted, diluted to 1.5×10^4 cells/mL in a complete cell culture medium, and plated in 96-well plates. The diluted cell suspension was added at 100 μL/well, and negative and blank control wells were set on each plate. The 96-well plates with the added cells were incubated overnight at 37° C. in a 5% CO2 incubator.
Samples were serially diluted with medium (serially 3-fold diluted from 10 μM) to 9 concentrations. The medium in the plates was discarded, and the drug solutions were added at 100 μL per well to a 96-well plate in triplicate. Negative and blank controls were set. The plates were incubated at 37° C. for 72 h in a 5% CO2 incubator.
The CellTiter-Glo buffer was thawed and warmed to room temperature, and the CellTiter-Glo substrate was warmed to room temperature. The CellTiter-Glo buffer was added to the flask containing CellTiter-Glo substrate to dissolve the substrate, thereby preparing a CellTiter-Glo working solution, which was then vortexed slowly to complete dissolution. The cell culture plates were equilibrated at room temperature for 30 min, before the CellTiter-Glo working solution was added at 50 μL/well (about half the volume of cell culture medium in each well). The plate was covered by aluminum foil to keep out of light. The culture plate was shaken on an orbital shaker for 2 min to induce cell lysis. The culture plate was left to stand at room temperature for 10 min to stabilize the luminescence signals. The luminescence signal was detected on a microplate reader (Molecular Devices SpectraMax iD5).
Four-parameter curves were fitted using GraphPad Prism 8.0.2 to give IC50 values.

[3] = Solubility study in PBS; format: physicochemical; conditions: aqueous buffer, thermodynamic from solid; PBS (pH 7.2 to 7.4); read-out: Solubility, concentration
Protocol: The mixture was vortexed for 2 min until the solid was dissolved. The solubility was calculated as: C=m/V, C: concentration, m: sample weight, V: PBS total volume.

[4] = Plasma stability study 2; format: in vitro ADME; conditions: mouse plasma, 37° C.; for remaining at 0.5 h, 100 μg/mL / remaining at 1 h, 100 μg/mL / remaining at 2 h, 100 μg/mL / remaining at 4 h, 100 μg/mL / remaining at 6 h, 100 μg/mL: read-out: Residual rate of principal component
Protocol: • 1) The conjugate compounds were prepared into 1 mg/mL stock solutions with 0.1% TFA-acetonitrile water (1:1); • 2) 10 μL of 1 mg/mL compound stock solution was added into 90 μL of fresh plasma, and the mixture was well mixed by gentle shaking, and transferred to a thermostatic incubator at 37° C. for 0 h, 0.5 h, 1 h, 2 h, 4 h, 6 h, or 24 h of incubation; • 3) at the time points, samples were taken out and 300 μL of methanol solution (containing 10 ng/ml of terfenadine) was added for protein precipitation; • 4) the mixture was centrifuged (13 min, 4° C., 12000 rpm) and the supernatant was collected, and preserved in a −80° C. refrigerator; after collection, the samples were loaded for LC-MS analysis.

[5] = molecular target: cathepsin B-human liver (Homo sapiens, UniProt P07858); conditions: 37° C.
Protocol: • 1) The conjugate compounds were prepared into 500 μg/mL stock solutions with 0.1% TFA-acetonitrile water (1:1); • 2) 60 μL of 500 μg/mL compound stock solution was added to 536 μL of 50 mM NaOAc (containing 1 mM EDTA+10 mM Cys), before 4 μL of cathepsin B (CB enzyme) was added, and the mixture was well mixed by gentle shaking. • 3) The cleavage reaction system in step 2) was transferred to a thermostatic incubator at 37° C. for 0 h, 1 h, 2 h, 4 h, or 24 h of incubation. Samples were taken and loaded at various time points for LC-MS analysis.

[6] = system: 22RV1; format: cell-based, human; conditions: 22RV1, 72 h, CellTiter-Glo
Source text: (§1) Negative and blank controls were set.

[7] = system: MDA-MB-231; format: cell-based, human; conditions: MDA-MB-231, 72 h, CellTiter-Glo
Source text: as §1

[8] = system: HT-29 cell subcutaneous xenograft tumor; test: Pharmacodynamic assessment, HT-29 xenograft model; format: in vivo, BALB/c nude mouse
Source text: Objective: Pre-clinical assessment of the efficacy of CR202 series of compounds for treating BALB/c nude mouse model with HT-29 cell subcutaneous xenograft tumor.
Procedures: HT-29 cells were subcutaneously grafted at the right back of the mice, and the mice were randomized when the mean tumor volume reached 100-150 mm^3. After the administration, the routine monitoring included the effect on tumor growth and the effect of treatment on the normal behavior of the animals, specifically the activity, food and water intake, weight gain or loss, the eyes, the hair, and other abnormal conditions. Clinical symptoms observed during the study were recorded in the raw data. After the administration was started, the body weight and tumor size of the mice were measured periodically. The tumor volume was calculated using the following formula: V=1/2×(a×b^2), where a and b denote the long diameter and short diameter of the tumor, respectively.

[9] = system: plasmin; conditions: PBS pH 7.4, 37° C.
Protocol: • 1) The compounds were formulated into 500 μg/mL stock solutions with PBS (pH 7.4); • 2) 60 μL of 500 μg/mL compound stock solution was added to 420 μL PBS (pH 7.4), before 60 μL of 0.2 U/mL plasmin (or 60 μL of 0.5 U/mL sulfatase) was added, and the mixture was well mixed by gentle shaking; • 3) The cleavage reaction system in step 2) was transferred to a thermostatic incubator at 37° C. for 0 h, 1 h, 2 h, 4 h, or 24 h of incubation. Samples were taken and loaded at various time points for LC-MS analysis.

[10] = 10.9 mg/kg i.v BIW×3, day 25 after grouping
[11] = 22.7 mg/kg i.v BIW×3, day 25 after grouping
[12] = 2.88 mg/kg i.v BIW×3, day 29 after grouping

SMILES	Safety [1]	solubility [3] [µg/mL]	CR20274 release rate (actual release/theoretical release) ([4]; 0 h) [%]	Residual rate of principal component ([4]; 0 h) [%]	CR20274 release rate (actual release/theoretical release) ([4]; 0.5 h) [%]	remaining at 0.5 h, 100 μg/mL ([4]; 0.5 h) [%]	CR20274 release rate (actual release/theoretical release) ([4]; 1 h) [%]	remaining at 1 h, 100 μg/mL ([4]; 1 h) [%]	CR20274 release rate (actual release/theoretical release) ([4]; 2 h) [%]	remaining at 2 h, 100 μg/mL ([4]; 2 h) [%]	CR20274 release rate (actual release/theoretical release) ([4]; 4 h) [%]	remaining at 4 h, 100 μg/mL ([4]; 4 h) [%]	CR20274 release rate (actual release/theoretical release) ([4]; 6 h) [%]	remaining at 6 h, 100 μg/mL ([4]; 6 h) [%]	CR20274 release rate (actual release/theoretical release) ([4]; 24 h) [%]	Residual rate of principal component ([4]; 24 h) [%]	IC50 [6] [nM]	IC50 [7] [nM]	further results
CC[C@@H]1C(=O)N(C)c2cnc(Nc3ccc(-c4cn([C@H]5CC[C@@H](N(CCOCCC#Cc6cccc7c6CN(C6CCC(=O)NC6=O)C7=O)C(=O)OCc6ccc(OP(=O)(O)O)c(C(=O)NCCOCCOCCOCCn7cc(C[C@H](NC(=O)[C@H](CCCCN)NC(=O)[C@H](CC(=O)O)NC(=O)[C@H](CC(=O)O)NC(=O)Cc8ccc(CNC(=O)NCCCC[C@H](NC(=O)N[C@@H](CCC(=O)O)C(=O)O)C(=O)O)cc8)C(=O)N[C@@H](CCCCNC(=O)CC[C@H](NC(=O)c8ccc(NCc9cnc%10[nH]c(N)nc(=O)c%10n9)cc8)C(=O)O)C(N)=O)nn7)c6)CC5)nn4)cc3OC)nc2N1C1CCCC1 (stereo partly drawn) [CR202LB]	good safety																		
CC[C@@H]1C(=O)N(C)c2cnc(Nc3ccc(-c4cn([C@H]5CC[C@@H](N(CCOCCC#Cc6cccc7c6CN(C6CCC(=O)NC6=O)C7=O)C(=O)OCc6ccc(NC(=O)[C@H](CCCNC(N)=O)NC(=O)[C@@H](NC(=O)COCCOCCn7cc(C[C@H](NC(=O)[C@H](CCCCN)NC(=O)[C@H](CC(=O)O)NC(=O)[C@H](CC(=O)O)NC(=O)Cc8ccc(CNC(=O)NCCCC[C@H](NC(=O)N[C@@H](CCC(=O)O)C(=O)O)C(=O)O)cc8)C(=O)N[C@@H](CCCCNC(=O)CC[C@H](NC(=O)c8ccc(NCc9cnc%10[nH]c(N)nc(=O)c%10n9)cc8)C(=O)O)C(N)=O)nn7)C(C)C)cc6)CC5)nn4)cc3OC)nc2N1C1CCCC1 (stereo partly drawn) [CR202V5]		2800 (≈ 941 µM)	0.02	94.75	0.17	101	0.25	94.9	0.37	94.7	0.94	90.6	0.97	80.4	3.92	−1.03	779	412	IC50 [2]: 144 nM; CR20274 release rate of compounds after cleavage ([5]; 0 h): 0%; Principal component residue of compounds after cleavage ([5]; 0 h): 100.00%; CR20274 release rate of compounds after cleavage ([5]; 1 h): 100%; Principal component residue of compounds after cleavage ([5]; 1 h): 2.37%; CR20274 release rate of compounds after cleavage ([5]; 2 h): 100%; Principal component residue of compounds after cleavage ([5]; 2 h): 0%; CR20274 release rate of compounds after cleavage ([5]; 4 h): 100%; Principal component residue of compounds after cleavage ([5]; 4 h): 0%; CR20274 release rate of compounds after cleavage ([5]; 24 h): 100%; Principal component residue of compounds after cleavage ([5]; 24 h): 0%
CCOCCNS(=O)(=O)NC(=O)OCCOCCNC(=O)[C@H](Cc1cn(CCOC(=O)NS(=O)(=O)NCCOCCOC(=O)N[C@H](C(=O)N[C@@H](CCCNC(N)=O)C(=O)Nc2ccc(COC(=O)N(CCOCCC#Cc3cccc4c3CN(C3CCC(=O)NC3=O)C4=O)[C@H]3CC[C@@H](n4cc(-c5ccc(Nc6ncc7c(n6)N(C)[C@H](CC)C(=O)N7C)cc5)nn4)CC3)cc2)C(C)C)nn1)NC(=O)CC[C@H](NC(=O)c1ccc(NCc2cnc3nc(N)nc(O)c3n2)cc1)C(=O)O (stereo partly drawn) [CR202HR]																			Mean tumor volume [8, 10]: 946.05 mm^3; TGI [8, 10]: 54.51%; Mean tumor volume [8, 11]: 614.73 mm^3; TGI [8, 11]: 70.44%
CC[C@@H]1C(=O)N(C)c2cnc(Nc3ccc(-c4cn([C@H]5CC[C@@H](N(CCOCCC#Cc6cccc7c6CN(C6CCC(=O)NC6=O)C7=O)C(=O)OCc6ccc(NC(=O)[C@H](CCCCN)NC(=O)[C@H](CC(C)C)NC(=O)[C@@H](NC(=O)COCCOCCn7cc(C[C@H](NC(=O)[C@H](CCCCN)NC(=O)[C@H](CC(=O)O)NC(=O)[C@H](CC(=O)O)NC(=O)Cc8ccc(CNC(=O)NCCCC[C@H](NC(=O)N[C@@H](CCC(=O)O)C(=O)O)C(=O)O)cc8)C(=O)N[C@@H](CCCCNC(=O)CC[C@H](NC(=O)c8ccc(NCc9cnc%10[nH]c(N)nc(=O)c%10n9)cc8)C(=O)O)C(N)=O)nn7)C(C)C)cc6)CC5)nn4)cc3OC)nc2N1C1CCCC1 (stereo partly drawn) [CR202V8]		7500 (≈ 2450 µM)	0.06	78.37	1.94	50.9	5.56	59.9	7.07	49.5	14.20	41.2	14.58	32.5	105.58	−2.40	20.5	24.1	CR20274 release rate of compounds after cleavage ([9]; 0 h): 22%; Principal component residue of compounds after cleavage ([9]; 0 h): 8%; CR20274 release rate of compounds after cleavage ([9]; 1 h): 100%; Principal component residue of compounds after cleavage ([9]; 1 h): 1%; CR20274 release rate of compounds after cleavage ([9]; 2 h): 100%; Principal component residue of compounds after cleavage ([9]; 2 h): 1%; CR20274 release rate of compounds after cleavage ([9]; 4 h): 100%; Principal component residue of compounds after cleavage ([9]; 4 h): 0%; CR20274 release rate of compounds after cleavage ([9]; 24 h): 100%; Principal component residue of compounds after cleavage ([9]; 24 h): 0%
CCCOCCOCCOCCO[Si](Oc1ccc(COC(=O)N(CCOCCC#Cc2cccc3c2CN(C2CCC(=O)NC2=O)C3=O)[C@H]2CC[C@@H](n3cc(-c4ccc(Cc5ncc6c(n5)N(C5CCCC5)[C@H](CC)C(=O)N6C)c(OC)c4)nn3)CC2)cc1)(C(C)C)C(C)C (stereo partly drawn) [CR202HT]	good safety																		Mean tumor volume [1, 12]: 690.37 mm^3; TGI [1, 12]: 58.19%
